Positions count from the first letter of the chain named.
T1: recombinant human LIGHT-214E, FLAG-tagged extracellular domain (human)
T1 construct: Trimer; Biotinylated in some assays
T1 chain: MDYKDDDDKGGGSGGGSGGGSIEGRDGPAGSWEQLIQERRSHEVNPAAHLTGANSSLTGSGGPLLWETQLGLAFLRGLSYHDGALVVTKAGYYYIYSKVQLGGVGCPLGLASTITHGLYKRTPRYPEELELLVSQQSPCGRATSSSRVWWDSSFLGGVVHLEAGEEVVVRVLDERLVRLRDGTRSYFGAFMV

T2: rabbit LIGHT protein, FLAG-tagged extracellular domain (rabbit)
T2 chain: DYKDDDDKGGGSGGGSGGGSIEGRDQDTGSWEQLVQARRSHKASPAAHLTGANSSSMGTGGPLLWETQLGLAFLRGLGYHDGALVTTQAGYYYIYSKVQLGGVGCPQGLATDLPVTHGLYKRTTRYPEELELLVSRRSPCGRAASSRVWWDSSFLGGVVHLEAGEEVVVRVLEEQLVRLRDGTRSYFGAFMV

T3: recombinant human LIGHT-214K, FLAG-tagged extracellular domain (human)
T3 construct: the IgK leader peptide is marked only by underlining (not visible here), so its residues were not removed; Trimer
T3 chain: T1 chain with E166K

T4: mouse LIGHT (mouse, UniProt Q9QYH9 72-239, limits assumed)
T4 construct: also called murine LIGHT
T4 sequence (looked up): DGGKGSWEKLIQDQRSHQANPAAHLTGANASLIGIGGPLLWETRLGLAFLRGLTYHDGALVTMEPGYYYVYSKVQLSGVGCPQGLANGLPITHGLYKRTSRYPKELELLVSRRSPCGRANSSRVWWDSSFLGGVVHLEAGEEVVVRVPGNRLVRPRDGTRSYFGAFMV

B1: 31A10 in human IgG4(PE) format (antibody, V domains shown)
VH: QVQLQESGPGLVKPSGTLSLTCAVSGGSISSINWWNWVRQPPGKGLEWIGEVSHSGITNYNPSLKSRVTMSVDKAKNQFSLKLNSVTAADTAVYYCARERAVADYHGMDVWGQGTTVTVSS
VL: AIQLTQSPSSLSASVGDRVTITCRASQGISSALAWFQQKPGKPPKLLIFDASDLESGVSSRFSGSGSGTDFTLTISSLQPGDFATYYCQQFNSYPITFGQGTRLEIK
B2: 98C07 in human IgG4(PE) format (antibody, V domains shown)
VH: QVQLVESGGGLVKPGGSLRLSCAASGFTFSDYYMSWIRQAPGKGLEWVSYISRSSFIYYSESVKGRFTISRDNAKNSLYLQMNSLRAEDTAVYYCARWELSPFDYWGQGTLVTVSS
VL: DIQMTQSPSSLSASVGDRVTITCRASQGISNYLAWFQQKPGKAPKSLIYAASSLQSGVPSKFSGSGSGTDFTLTISSLQPEDFATYFCQQYNTYPFTFGPGTKVDIK
B3: 42A02 (purified from hybridoma supernatant) (antibody, V domains shown)
VH: EVQLVESGGGLVQPGGSLRLSCAASGFTFSSYVMSWVRQAPGKGLEWVSVISSSGVTTYYADSVKGRFTISRDNSKNTLYLQMNSLRAEETAVYYCAKGNYGSGSFCDYWGQGTPVTVSS
VL: SYVLTQPPSVSVAPGKTARITCGGNNIGSKSVHWYQQRPGQAPILVIYYDSDRPSGIPERFSGSNSGNSATLTISRVEAGDEADYHCQVWESSSDHPVFGGGTKLTVL
notes: Murine constant / human variable chimeric IgG, lambda, Protein G purified from hybridoma supernatant
B4: 31A10 (purified from hybridoma supernatant) (antibody, V domains shown)
VH: B1 VH
VL: B1 VL
notes: Murine constant / human variable chimeric IgG, kappa, Protein G purified from hybridoma supernatant
B5: 144F05 (purified from hybridoma supernatant) (antibody, V domains shown)
VH: QVQLQESGPGLVKPSGTLSLTCAVSGGSISSTHWWNWVRQPPGKGLEWIGEIYHSGSTNCNPSLKSRVTISVDKSKNQFSLKMNSVTAADTAVYYCTRGGAAAGTNYGLDVWGQGTTVTVSS
VL: not shown
notes: as for B4
B6: 14B09 (purified from hybridoma supernatant) (antibody, V domains shown)
VH: QVQLVQSGAEVKKPGASVKVSCRASGYTFTSYLMHWVRQAPGQRLEWMGWINVGNGNTKYSQKFQGRVTITRDTSASTAYMELSGLRSEDTAVYYCARNYYNWFDPWGQGTLVTVSS
VL: QSALTQPASVSGSPGQSITISCTGTSSDVGGYNYVSWYQQHPGKAPKLMIYDVSKRPSGVSNRFSGSKSGNTASLTISGLQAEDEADYYCFSYAGSSTVVFGGGTKLTVL
notes: as for B3
B7: 13H04 (purified from hybridoma supernatant) (antibody, V domains shown)
VH: QVQLVQSGAEVKKPGASVKVSCKASGYTFTSYGISWVRQAPGQGLEWMGWISAHNANTNYAQKLQGRVTMTTDTSTSTAYMELRSLRSDDTAMYYCARLYRNWFDPWGQGTLVTVSS
VL: B6 VL with F91C, V99L, V100L
notes: as for B3
B8: 29C09 (purified from hybridoma supernatant) (antibody, V domains shown)
VH: QEQLVQSGAEVKKPGASVKVSCKASGYTFTSYDINWVRQATGQGLEWMGWMNPNSGYTGYAQKFQGRVTMTRNTSIRTVYMELSSLRSEDTAVYYCARGGETFDIWGQGTMVTVSS
VL: SYELTQPPSVSVSPGQTARITCSGDALPKKYAYWYQQKSGQAPVLVIYEDSKRPSGIPERFSGSSSGTMATLTISGAQVEDEADYYCYSTDSSDNHSVFGTGTKVTVL
notes: as for B3
B9: 62C01 (purified from hybridoma supernatant) (antibody, V domains shown)
VH: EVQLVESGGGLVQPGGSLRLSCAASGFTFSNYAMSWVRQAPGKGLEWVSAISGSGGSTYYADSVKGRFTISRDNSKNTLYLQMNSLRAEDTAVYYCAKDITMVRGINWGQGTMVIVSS
VL: DIQMTQSPSSVSASVGDRVTITCRASQGISNWLAWYQQKPGKAPKLLIFAASSLQSGVPSRFSGSGSGTDFTLTISSLQPEDFATYYCQQSNSFPLTFGGGTKVEIK
notes: as for B4

Biological target: T1, recombinant human LIGHT-214E, …
Experiment: HTRF competition, AlexaFluor 647 HVEM-Fc binding to Flag-hLIGHT-214E
Procedure: (§1) The following methods were carried out with a titration of inhibitor in order to establish the clone potency as measured by IC50 values in the assay. 5 μl of Flag-tagged hLIGHT (in-house) diluted to 2.5 nM final concentration (10 nM working concentration) in HTRF buffer with 5 μl of a titration of antibody purified from hybridoma supernatant diluted in HTRF assay buffer from 300 nM final (1200 nM working concentration) was pre-incubated for 1 hour at room temperature. To wells used to define total binding, 5 μl of LIGHT (10 nM working, 2.5 nM final) and 5 μl of hybridoma maintaining media (HMM,)) were added. To wells used to define non specific binding (receptor only) 10 μl of HMM was added. Total and non specific binding wells were pre-incubated for 1 hr at RT in the same plate as wells containing titration of inhibitor.
(§2) The final IgG4(PE) format lead panel was analysed for neutralization activity as in Example 3. Antibodies were tested for their ability to neutralize LIGHT binding to its receptors, HVEM and LTβR, in an HTRF assay. Antibodies were also tested for their ability to neutralize LIGHT-induced IL-8 release by HT29 colon carcinoma cells.
(§3) HTRF assays were performed as per Example 3, with the following modifications: HVEM-Fc and LTβR-Fc were labelled with AlexaFluor 647, and an anti-Flag K antibody (Cisbio) was used for detection.

In order of falling IC50:
1. B1  1.15 nM
2. B2  0.82 nM

Biological target: human LIGHT-214E, full length, expressed on the surface of CHO-S cells (human, UniProt O43557 1-240)
Experiment: flow cytometry, CHO-S cells expressing hLIGHT-214E

B3: binds.
B4: binds.
B5: binds.
B6: binds.
B7: binds.
B8: binds.
B9: binds.

Biological target: T2, rabbit LIGHT protein, FLAG-tagged …
Experiment: SPR ProteOn, mAb captured on anti-human IgG, 25 C
Procedure: This created a capture surface suitable for capturing human antibodies. The LIGHT antibodies were captured on this anti-human IgG surface, and then human and rabbit LIGHT proteins were passed over captured LIGHT Abs at a concentration of 200 nM. A buffer injection was used to double reference the LIGHT binding sensorgrams. The assay was run at 25° C., using HBS-EP as running buffer.

B1: binds.
B2: binds.

Biological target: T1, recombinant human LIGHT-214E, …
Experiment: HTRF competition, HVEM-Fc binding to Flag-hLIGHT-214E
Procedure: as §1
(§4) LIGHT receptor was diluted in HTRF assay buffer and added to all wells, 5 μl/well of HVEM-Fc or LTβR-Fc (R&D systems) at 1.2 nM for HVEM (0.3 nM final) and 0.4 nM for LTβR (0.1 nM final).

In order of rising IC50:
1. B4  0.662 nM
2. B6  0.895 nM
3. B3  0.898 nM
4. B8  0.922 nM
5. B7  1.09 nM
6. B5  1.34 nM
7. B9  1.6 nM

Biological target: T3, recombinant human LIGHT-214K, …
Experiment: SPR ProteOn, mAb captured on anti-mouse IgG, LIGHT 256 nM, 25 C, apparent affinity
Procedure: (§5) SPR analysis was carried out using the ProteOn™ XPR36 Array System (BioRad). Anti-mouse IgG (GE Healthcare BR-1008-38) was immobilised on a GLC biosensor surface using amine coupling, the surface was then blocked using 1M ethanolamine. […] Apparent affinities for the LIGHT-antibody interaction were determined using the 1:1 model inherent to the ProteOn XPR36 analysis software. The assay was run using HBS-EP (Teknova) as running buffer and carried out at 25° C.

In order of falling Kd:
1. B9  23.6 nM
2. B5  5.78 nM
3. B6  3.37 nM
4. B7  1.57 nM
5. B8  0.605 nM
6. B4  0.349 nM
7. B3  0.161 nM

Biological target: T5, recombinant cynomolgus monkey LIGHT, FLAG-tagged extracellular domain (cynomolgus (Macaca fascicularis), UniProt E9NVF7 59-240)
T5 construct: extracellular domain; also called cynomolgus LIGHT; cyno LIGHT
Experiment: as above
Procedure: as §5

In order of rising Kd:
1. B3  0.084 nM
2. B6  0.156 nM
3. B7  0.561 nM
4. B9  1.64 nM
5. B8  2.28 nM
6. B5  2.89 nM

Biological target: T1, recombinant human LIGHT-214E, …
Experiment: as above
Procedure: as §5

In order of rising Kd:
1. B3  0.062 nM
2. B8  0.311 nM
3. B6  0.492 nM
4. B7  0.881 nM
5. B9  1.02 nM
6. B5  3.25 nM

Biological target: T4, mouse LIGHT
Experiment: SPR ProteOn, mAb captured on anti-mouse IgG

B3: no binding.
B5: no binding.
B6: no binding.
B7: no binding.
B8: no binding.

Biological target: T1, recombinant human LIGHT-214E, …
Experiment: cell-based or functional assay

In order of falling “HT29 IL-8 release, IC50” value:
1. B1  0.29 nM
2. B2  0.18 nM

Biological target: T1, recombinant human LIGHT-214E, …
Experiment: HTRF competition, AlexaFluor 647 LTβR-Fc binding to Flag-hLIGHT-214E
Procedure: as §1, §2, §3

In order of falling IC50:
1. B1  2.19 nM
2. B2  1.62 nM

Biological target: T5, recombinant cynomolgus monkey LIGHT, …
Experiment: SPR ProteOn, mAb captured on anti-human IgG, 37 C

Work on B2 yielded a Kd of 0.202 nM.

Biological target: T1, recombinant human LIGHT-214E, …
Experiment: SPR ProteOn, mAb captured on anti-human IgG, 37 C

With B2 the Kd was 0.018 nM.

Biological target: T1, recombinant human LIGHT-214E, …
Experiment: HTRF competition, LTβR-Fc binding to Flag-hLIGHT-214E
Procedure: as §1, §4

In order of falling IC50:
1. B5  3.32 nM
2. B9  2.66 nM
3. B7  1.97 nM
4. B3  1.65 nM
5. B6  1.57 nM
6. B8  1.55 nM
7. B4  1.45 nM

Biological target: T1, recombinant human LIGHT-214E, …
Experiment: cell-based or functional assay
Remark: another data set of the same source

In order of falling “HT29 IL-8 release, IC50” value:
1. B5  2.75 nM
2. B7  1.33 nM
3. B6  1.31 nM
4. B3  0.917 nM
5. B9  0.578 nM
6. B8  0.33 nM
7. B4  0.217 nM
